Measured values from patent publication US20110230374A1 (UNIVERSITY OF MARYLAND BALTIMORE, published 2011).
Where a chain is given by its changes, count along the chain named.

B1: VLRB.HEL.2D (other)
chain: ACPSQCSCSGTTVDCSGKSLASVPTGIPTTTQVLYLYDNQITKLEPGVFDRLTQLTRLDLDNNQLTVLPAGVFDKLTQLTQLSLNDNQLKSIPRGAFDNLKSLTHIWLLNNPWDCACSDILYLSRWISQHPGLVFGYLNLDPDSARCSGTNTPVRAVTEASTSPSKCP
notes: also called VLRB.2D; wild-type VLRB.2D
B2: VLRB.2DMut.12 (other)
chain: B1 chain with G132W, P142H
B3: VLRB.2DMut.13 (other)
chain: B1 chain with Q40R, K101R, G132W, P142H, E159K
B4: VLRB.2DMut.15 (other)
chain: B1 chain with T29I, D86V, D141Y
B5: VLRB.CTMut.5 (other)
chain: ACPSQCSCDQTTVYCHNRRLTSVPTGIPTTTQVLYLYDNQITKLEPGVFDRLTKLTHLSLGYNQLKSVPRGAFDNLKSLTHIWLLNNPWDCQCTDILYLKNWIVQHASIVNPHTHGGVDNVKCSGTNTPVRAVTEASTSPSKC

What was measured:
hen egg lysozyme [1] = target: T1, hen egg lysozyme (hen, UniProt P00698 19-147); test: ITC at 25 C, VLR refolded from E. coli inclusion bodies, HEL injected
T1 construct: Soluble monovalent antigen; Biotinylated for YSD titration; unlabelled analyte in SPR and titrant in ITC; also called HEL

hen egg lysozyme [2] = target: T1, hen egg lysozyme; test: SPR, steady-state analysis, VLRB.2D (117.0-10.9 µM) over immobilized HEL (FIG. 3A); SPR of FIG. 3A; clone found by phage display
hen egg lysozyme [3] = target: T1, hen egg lysozyme; test: YSD antigen titration, flow cytometry, biotin-HEL and SAPE
hen egg lysozyme [4] = target: T1, hen egg lysozyme; test: SPR (BIAcore T100), biotinylated yeast-secreted VLR on NeutrAvidin, antigen as analyte
hen egg lysozyme [5] = target: T1, hen egg lysozyme; test: SPR, Table 1
hen egg lysozyme [6] = target: T1, hen egg lysozyme; test: SPR, steady-state analysis, 2DMut.12 (30.8-1.0 µM) over immobilized HEL (FIG. 3B)
hen egg lysozyme [7] = target: T1, hen egg lysozyme; test: SPR, VLR over immobilized HEL
hen egg lysozyme [8] = target: T1, hen egg lysozyme; test: SPR (BIAcore T100), biotinylated yeast-secreted VLR on NeutrAvidin, HEL as analyte (7.66-0.00299 nM)

T1 sequence (P00698 19-147): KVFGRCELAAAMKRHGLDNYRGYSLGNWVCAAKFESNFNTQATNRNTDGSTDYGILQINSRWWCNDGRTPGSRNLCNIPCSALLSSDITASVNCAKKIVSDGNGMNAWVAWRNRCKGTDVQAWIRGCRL

Row | Binder | Kd (hen egg lysozyme [1]) [nM] | Kd (hen egg lysozyme [2]) [µM] | Kd (hen egg lysozyme [3]) [nM] | Kd (hen egg lysozyme [4]) [nM] | fold improvement of affinity over wild-type VLRB.HEL.2D (hen egg lysozyme [5]) [fold] | Kd (hen egg lysozyme [6]) [nM] | fold improvement of affinity over wild-type VLRB.2D (hen egg lysozyme [7]) [fold] | fold improvement of affinity over VLRB.HEL.1 (hen egg lysozyme [5]) [fold] | Kd (hen egg lysozyme [8]) [nM]
1 | B1 | 427 | 20 | 659 | 455 |  |  |  |  | 
2 | B2 | 28 |  | 6.9 | 4.3 | 100 | 1500 | 13 |  | 
3 | B3 | 34 |  |  | 55.1 |  |  |  |  | 
4 | B4 | 8 |  |  | 20.2 |  |  |  |  | 
5 | B5 |  |  |  |  |  |  |  | 1300 | 0.119
